According to patent US20240382605A1, “CONJUGATED OLIGONUCLEOTIDES AND USES THEREOF” (Ionis Pharmaceuticals, Inc., priority 2021, published 2024):

Legend:
[1] = Example 8: hematology assays / blood cell counts in hTFR^KI/+ knock in mice; format: in vivo, mouse; conditions: for BAS (basophils) / LYM (lymphocytes) / MON (monocytes) / NEU (neutrophils) / PLT (platelets) / RETI (reticulocytes): day 15; for Mean corpuscular volume (MCV) / hematocrit (HCT) / hemoglobin (HGB) / mean corpuscular hemoglobin (MCH) / mean corpuscular hemoglobin concentration (MCHC) / red blood cell (RBC) count / white blood cell (WBC) count: blood day 15;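 for all read-outs here: mice given conjugated modified oligonucleotide, three doses total, blood cell counts measured at sacrifice, PBS-treated group of 4 mice serves as negative control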
Description: (§1) Each mouse received an intravenous (i.v.) administration or subcutaneous (s.c.) administration of conjugated modified oligonucleotide for a total of 3 doses (on Days 1, 5, and 9) at doses indicated in the table below. […] A group of 4 mice received PBS as a negative control.
Blood obtained from mice on the day the mice were sacrificed (day 15) were sent to IDEXX BioResearch for measurement of blood cell counts. Counts taken include red blood cell (RBC) count, white blood cell (WBC) count, hemoglobin (HGB), hematocrit (HCT), Mean corpuscular volume (MCV), mean corpuscular hemoglobin (MCH), and mean corpuscularhemoglobin concentration (MCHC). Individual white blood cell counts, such as that of monocytes (MON), neutrophils (NEU), lymphocytes (LYM), eosinophils (EOS), basophils (BAS), reticulocytes, and platelets were evaluated.

[2] = Example 8: body and organ weights in hTFR^KI/+ knock in mice; format: in vivo, mouse; conditions: for Organ weight Kidney / Organ weight Liver / Organ weight Spleen: day 15
Protocol: as §1
Liver, kidney, and spleen weights were measured on the day the mice were sacrificed (day 15), and the average organ weights for each group are presented in the tables below.

mouse DMPK RNA = assay: Example 8: mouse DMPK RNA and ED50 in tissues of hTFR^KI/+ knock in mice, multiple dose (RTPCR, day 15); format: in vivo;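 note: conjugated oligonucleotide given as three doses to hTFR^KI/+ knock-in mice, tissues taken at day 15 and mouse DMPK RNA quantified by real-time RT-PCR against PBS-treated controls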
Protocol: The activity and tolerability of modified oligonucleotides conjugated to CD71 bicycle ligands were tested in hTFR^KI/+ knock in mice (described herein above).
as §1
The mice were sacrificed six days post final administration (on day 15), and RNA was extracted from various muscle tissues (including quadriceps (Quad), tibialis anterior (TA), diaphragm, triceps, heart, gastrocnemius (gastroc)), aorta, sciatic nerve, and liver tissue for quantitative real time RTPCR analysis to measure amount of mouse DMPK RNA using mouse primer probe set RTS3181 (described herein above).

[3] = Example 8: plasma chemistry markers in hTFR^KI/+ knock in mice; format: in vivo, mouse; conditions: plasma day 15;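 note: plasma levels read on an automated clinical chemistry analyzer after three doses of conjugated modified oligonucleotide, with a PBS-treated group as negative control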
Description: as §1
To evaluate the effect of modified oligonucleotides on liver and kidney function, plasma levels of albumin (ALB), alanine aminotransferase (ALT), aspartate aminotransferase (AST), blood urea nitrogen (BUN), total bilirubin (TBIL), total Protein (PROT), Creatine (CREAT), and Creatine Kinase (CK) were measured on the day the mice were sacrificed (day 15) using an automated clinical chemistry analyzer (Hitachi Olympus AU400c, Melville, NY).

[4] = reduction of mouse DMPK RNA, i.v., 3 doses on Days 1, 5, 9

## 1590463-BCY17896: modified oligonucleotide 1590463 conjugated to CD71 bicycle ligand BCY17896 through a BCN linker (CPXDAYLGCXSYCX; not fully specified; non-natural residues; cyclised or stapled)
[1]; 1 mg/kg i.v.
  BAS (basophils): 0.07%
  LYM (lymphocytes): 85%
  MON (monocytes): 5%
  NEU (neutrophils): 8%
  PLT (platelets): 1170 10^9/L
  RETI (reticulocytes): 439 10^3/μL
[1]; 10 mg/kg i.v.
  BAS (basophils): 0.07%
  LYM (lymphocytes): 84%
  MON (monocytes): 6%
  NEU (neutrophils): 8%
  PLT (platelets): 1087 10^9/L
  RETI (reticulocytes): 389 10^3/μL
[2]; 1 mg/kg i.v.
  Body weight Day 1: 27 g
  Body weight Day 15: 28 g
  Organ weight Kidney: 0.35 g
  Organ weight Liver: 1.49 g
  Organ weight Spleen: 0.07 g
[2]; 10 mg/kg i.v.
  Body weight Day 1: 24 g
  Body weight Day 15: 25 g
  Organ weight Kidney: 0.33 g
  Organ weight Liver: 1.39 g
  Organ weight Spleen: 0.07 g
Mouse DMPK RNA; [4]
  Diaphragm ED50: 1.4 mg/kg
  Gastrocnemius ED50: 2.9 mg/kg
  Quadriceps ED50: 2.6 mg/kg
  Tibialis Anterior ED50: 3.3 mg/kg

## 1590463 BCY17901 (CPXDAYLGCXSYCEPWX; not fully specified; non-natural residues; cyclised or stapled)
[1]; i.v. 1 mg/kg on Days 1, 5, 9
  Mean corpuscular volume (MCV): 40 fL
  hematocrit (HCT): 48%
  hemoglobin (HGB): 15 g/dL
  mean corpuscular hemoglobin (MCH): 13 pg
  mean corpuscular hemoglobin concentration (MCHC): 31 g/dL
  red blood cell (RBC) count: 12 10^12/L
  white blood cell (WBC) count: 7 10^3/μL
[1]; i.v. 10 mg/kg on Days 1, 5, 9
  Mean corpuscular volume (MCV): 41 fL
  hematocrit (HCT): 47%
  hemoglobin (HGB): 15 g/dL
  mean corpuscular hemoglobin (MCH): 13 pg
  mean corpuscular hemoglobin concentration (MCHC): 31 g/dL
  red blood cell (RBC) count: 11 10^12/L
  white blood cell (WBC) count: 9 10^3/μL
[3]; i.v. 1 mg/kg on Days 1, 5, 9
  Creatine (CREAT): 0.15 mg/dL
  alanine aminotransferase (ALT): 65 U/L
  albumin (ALB): 2.76 g/dL
  aspartate aminotransferase (AST): 107 U/L
  blood urea nitrogen (BUN): 23 mg/dL
  total Protein (PROT): 4.73 g/dL
  total bilirubin (TBIL): 0.13 mg/dL
[3]; i.v. 10 mg/kg on Days 1, 5, 9
  Creatine (CREAT): 0.15 mg/dL
  alanine aminotransferase (ALT): 35 U/L
  albumin (ALB): 2.63 g/dL
  aspartate aminotransferase (AST): 98 U/L
  blood urea nitrogen (BUN): 23 mg/dL
  total Protein (PROT): 4.53 g/dL
  total bilirubin (TBIL): 0.14 mg/dL
Mouse DMPK RNA; i.v. 1 mg/kg on Days 1, 5, 9
  Diaphragm mouse DMPK RNA (% control): 57 % control
  Gastrocnemius mouse DMPK RNA (% control): 74 % control
  Heart mouse DMPK RNA (% control): 75 % control
  Quadriceps mouse DMPK RNA (% control): 79 % control
  Tibialis Anterior mouse DMPK RNA (% control): 71 % control
Mouse DMPK RNA; i.v. 10 mg/kg on Days 1, 5, 9
  Diaphragm mouse DMPK RNA (% control): 14 % control
  Gastrocnemius mouse DMPK RNA (% control): 15 % control
  Heart mouse DMPK RNA (% control): 44 % control
  Quadriceps mouse DMPK RNA (% control): 14 % control
  Tibialis Anterior mouse DMPK RNA (% control): 14 % control

## 1590463 BCY17896 (CPXDAYLGCXSYCX; not fully specified; non-natural residues; cyclised or stapled)
[1]; i.v. 1 mg/kg on Days 1, 5, 9
  Mean corpuscular volume (MCV): 40 fL
  hematocrit (HCT): 47%
  hemoglobin (HGB): 15 g/dL
  mean corpuscular hemoglobin (MCH): 13 pg
  mean corpuscular hemoglobin concentration (MCHC): 32 g/dL
  red blood cell (RBC) count: 12 10^12/L
  white blood cell (WBC) count: 8 10^3/μL
[1]; i.v. 10 mg/kg on Days 1, 5, 9
  Mean corpuscular volume (MCV): 41 fL
  hematocrit (HCT): 47%
  hemoglobin (HGB): 15 g/dL
  mean corpuscular hemoglobin (MCH): 13 pg
  mean corpuscular hemoglobin concentration (MCHC): 31 g/dL
  red blood cell (RBC) count: 11 10^12/L
  white blood cell (WBC) count: 9 10^3/μL
[3]; i.v. 1 mg/kg on Days 1, 5, 9
  Creatine (CREAT): 0.16 mg/dL
  alanine aminotransferase (ALT): 40 U/L
  albumin (ALB): 2.82 g/dL
  aspartate aminotransferase (AST): 111 U/L
  blood urea nitrogen (BUN): 24 mg/dL
  total Protein (PROT): 4.83 g/dL
  total bilirubin (TBIL): 0.12 mg/dL
[3]; i.v. 10 mg/kg on Days 1, 5, 9
  Creatine (CREAT): 0.16 mg/dL
  alanine aminotransferase (ALT): 34 U/L
  albumin (ALB): 2.70 g/dL
  aspartate aminotransferase (AST): 119 U/L
  blood urea nitrogen (BUN): 22 mg/dL
  total Protein (PROT): 4.57 g/dL
  total bilirubin (TBIL): 0.11 mg/dL
Mouse DMPK RNA; i.v. 1 mg/kg on Days 1, 5, 9
  Diaphragm mouse DMPK RNA (% control): 60 % control
  Gastrocnemius mouse DMPK RNA (% control): 75 % control
  Heart mouse DMPK RNA (% control): 81 % control
  Quadriceps mouse DMPK RNA (% control): 74 % control
  Tibialis Anterior mouse DMPK RNA (% control): 84 % control
Mouse DMPK RNA; i.v. 10 mg/kg on Days 1, 5, 9
  Diaphragm mouse DMPK RNA (% control): 16 % control
  Gastrocnemius mouse DMPK RNA (% control): 28 % control
  Heart mouse DMPK RNA (% control): 56 % control
  Quadriceps mouse DMPK RNA (% control): 23 % control
  Tibialis Anterior mouse DMPK RNA (% control): 28 % control
